Data from patent US20220017622A1 (Pfizer, published 2022).
Blank lines part the entries; values can stand above or below the binder they belong to.

Experiments:
[1] = target: T1, cynomolgus CD3 on cells from cynomolgus PBMCs (cynomolgus, UniProt Q95LI5 22-198; Q95LI8 22-171); assay: flow cytometry on cyno PBMC, 37 C
T1 construct: whole, on cells; also called Cyno PBMC

[2] = target: T2, human CD3 on primary human T cells (human, UniProt P07766 23-207; P04234 22-171); assay: flow cytometry on primary human T cells, 37 C
T2 construct: whole, on cells; On cells the whole CD3/TCR complex is present

[3] = target: T3, human CD3 (delta/epsilon heterodimer) (human, UniProt P07766 23-126; P04234 22-105); assay: SPR 37 C; CD3 delta/epsilon on anti-His chip, bispecific (stable CHO) analyte
T3 construct: captured on an anti-His chip, so it carries a His tag; also called huCD3

[4] = target: T4, cyno CD3 (delta/epsilon heterodimer) (cyno, UniProt Q95LI5 22-117; Q95LI8 22-105); assay: as above
T4 construct: also called cyCD3

[5] = target: T3, human CD3 (delta/epsilon heterodimer); assay: SPR 37 C; CD3 delta/epsilon on anti-His chip, bispecific analyte
[6] = target: T4, cyno CD3 (delta/epsilon heterodimer); assay: as above
[7] = target: T3, human CD3 (delta/epsilon heterodimer); assay: SPR 37 C; CD3 delta/epsilon on anti-His chip, bispecific (transient expi293) analyte
[8] = target: T4, cyno CD3 (delta/epsilon heterodimer); assay: as above
[9] = target: T5, human B7-H4 on cells (human, UniProt Q7Z7D3 25-282); assay: cell-based or functional assay
T5 sequence (looked up): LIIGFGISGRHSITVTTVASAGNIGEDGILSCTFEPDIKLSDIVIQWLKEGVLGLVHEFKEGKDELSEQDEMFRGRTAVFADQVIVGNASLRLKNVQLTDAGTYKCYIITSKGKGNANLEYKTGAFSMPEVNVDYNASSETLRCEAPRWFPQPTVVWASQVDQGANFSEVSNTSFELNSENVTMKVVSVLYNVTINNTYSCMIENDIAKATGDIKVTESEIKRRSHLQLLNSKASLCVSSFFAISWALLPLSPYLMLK

[10] = target: T6, human B7-H4 extracellular domain (human, UniProt Q7Z7D3 29-258); assay: SPR 37 C; bispecific (IgG1 scaffold) on anti-hFc chip, ECD analyte
T6 construct: Soluble ECD used as SPR analyte; also called huB7-H4 ECD; huB7-H4
T6 sequence: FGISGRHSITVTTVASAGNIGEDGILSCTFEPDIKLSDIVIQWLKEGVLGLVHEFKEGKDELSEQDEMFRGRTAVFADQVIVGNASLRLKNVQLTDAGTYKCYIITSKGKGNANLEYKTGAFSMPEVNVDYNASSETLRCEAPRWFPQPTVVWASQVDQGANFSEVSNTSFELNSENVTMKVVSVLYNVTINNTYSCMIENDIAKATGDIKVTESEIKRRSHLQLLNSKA

[11] = target: T3, human CD3 (delta/epsilon heterodimer); assay: SPR 37 C; CD3 delta/epsilon on anti-His chip, bispecific (IgG1 scaffold) analyte

T4 sequence (Q95LI5 22-117, stated change not applied, chain 1 of 2): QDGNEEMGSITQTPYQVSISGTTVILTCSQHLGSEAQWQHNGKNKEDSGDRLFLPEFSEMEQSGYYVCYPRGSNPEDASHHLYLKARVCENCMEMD
T4 sequence (Q95LI8 22-105, stated change not applied, chain 2 of 2): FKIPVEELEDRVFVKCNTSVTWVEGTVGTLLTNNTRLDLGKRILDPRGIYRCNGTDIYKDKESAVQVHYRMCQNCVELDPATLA
T3 sequence (P07766 23-126, stated change not applied, chain 1 of 2): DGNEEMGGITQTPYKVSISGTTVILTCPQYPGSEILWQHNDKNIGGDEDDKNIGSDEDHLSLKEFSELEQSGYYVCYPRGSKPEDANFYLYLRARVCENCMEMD
T3 sequence (P04234 22-105, stated change not applied, chain 2 of 2): as the sequence (Q95LI8 22-105, stated change not applied, chain 2 of 2) above, with V5I, K15N, V20I, T32S, N33D, N34I, A64T, N74S, L83V counted along it
T2 sequence (P07766 23-207, chain 1 of 2): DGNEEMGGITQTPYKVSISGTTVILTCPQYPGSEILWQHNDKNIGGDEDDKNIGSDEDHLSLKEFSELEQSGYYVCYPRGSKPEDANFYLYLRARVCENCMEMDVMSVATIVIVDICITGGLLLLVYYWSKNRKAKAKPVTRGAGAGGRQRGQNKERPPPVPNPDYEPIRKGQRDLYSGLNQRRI
T2 sequence (P04234 22-171, chain 2 of 2): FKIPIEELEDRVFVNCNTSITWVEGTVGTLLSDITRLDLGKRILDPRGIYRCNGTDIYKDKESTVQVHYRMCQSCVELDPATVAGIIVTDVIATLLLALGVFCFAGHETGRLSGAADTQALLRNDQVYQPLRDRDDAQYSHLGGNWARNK
T1 sequence (Q95LI5 22-198, chain 1 of 2): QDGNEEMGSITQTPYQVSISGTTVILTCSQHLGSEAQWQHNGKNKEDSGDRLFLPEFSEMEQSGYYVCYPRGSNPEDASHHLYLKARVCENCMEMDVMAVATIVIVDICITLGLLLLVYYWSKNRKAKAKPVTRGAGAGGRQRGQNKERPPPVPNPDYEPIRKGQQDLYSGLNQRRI
T1 sequence (Q95LI8 22-171, chain 2 of 2): as the sequence (P04234 22-171, chain 2 of 2) above, with I5V, N15K, I20V, S32T, D33N, I34N, T64A, S74N, V83L, H141R counted along it

EC50 [1]: 46 nM | EC50 [2]: 64 nM | Kd [3]: 49.8 nM | koff [3]: 0.0317 s⁻¹ | kon [3]: 638000 M⁻¹ s⁻¹ | Kd [4]: 58.8 nM | koff [4]: 0.0305 s⁻¹ | kon [4]: 519000 M⁻¹ s⁻¹ | Kd [5]: 63.5 nM | koff [5]: ~0.0337 s⁻¹ | kon [5]: 531000 M⁻¹ s⁻¹ | Kd [6]: 66.8 nM | koff [6]: ~0.0338 s⁻¹ | kon [6]: 506000 M⁻¹ s⁻¹ | Kd [7]: 62.5 nM | koff [7]: 0.0309 s⁻¹ | kon [7]: 499000 M⁻¹ s⁻¹ | Kd [8]: 70.8 nM | koff [8]: 0.0317 s⁻¹ | kon [8]: 449000 M⁻¹ s⁻¹
B1: B7-H4xCD3 bispecific antibody 1167 (bispecific antibody)
heavy 1: EVQLLESGGGLVQPGGSLRLSCAASGFTFSSYAMSWVRQAPGKGLEWVSAISGGGGSTYYADSVKGRFTISRDNSKNTLYLQMNSLRAEDTAVYYCARDIQWYGESTLFDYWGQGTLVTVSSASTKGPSVFPLAPCSRSTSESTAALGCLVKDYFPEPVTVSWNSGALTSGVHTFPAVLQSSGLYSLSSVVTVPSSNFGTQTYTCNVDHKPSNTKVDKTVERKCEVECPECPAPPVAGPSVFLFPPKPKDTLMISRTPEVTCVVVAVSHEDPEVQFNWYVDGVEVHNAKTKPREEQFNSTFRVVSVLTVVHQDWLNGKEYKCKVSNKGLPSSIEKTISKTKGQPREPQVYTLPPSREEMTKNQVSLTCEVKGFYPSDIAVEWESNGQPENNYKTTPPMLDSDGSFFLYSKLTVDKSRWQQGNVFSCSVMHEALHNHYTQKSLSLSPGK
light 1: DIQMTQSPSSLSASVGDRVTITCRASQSTRSHLAWYQQKPGKAPKLLIYKASSLEGGVPSRFSGSGSGTDFTLTISSLQPEDFATYYCQQYGSYSRTFGQGTKVEIKRTVAAPSVFIFPPSDEQLKSGTASVVCLLNNFYPREAKVQWKVDNALQSGNSQESVTEQDSKDSTYSLSSTLTLSKADYEKHKVYACEVTHQGLSSPVTKSFNRGEC
heavy 2: EVQLVESGGGLVQPGGSLRLSCAASGFTFSDYYMTWVRQAPGKGLEWVAFIRNQARGYTSDHNPSVKGRFTISRDNAKNSLYLQMNSLRAEDTAVYYCARDRPSYYVLDYWGQGTTVTVSSASTKGPSVFPLAPCSRSTSESTAALGCLVKDYFPEPVTVSWNSGALTSGVHTFPAVLQSSGLYSLSSVVTVPSSNFGTQTYTCNVDHKPSNTKVDKTVERKCRVRCPRCPAPPVAGPSVFLFPPKPKDTLMISRTPEVTCVVVAVSHEDPEVQFNWYVDGVEVHNAKTKPREEQFNSTFRVVSVLTVVHQDWLNGKEYKCKVSNKGLPSSIEKTISKTKGQPREPQVYTLPPSREEMTKNQVSLTCLVKGFYPSDIAVEWESNGQPENNYKTTPPMLDSDGSFFLYSRLTVDKSRWQQGNVFSCSVMHEALHNHYTQKSLSLSPGK
light 2: DIQMTQSPSSLSASVGDRVTITCTSSQSLFNVRSQKNYLAWYQQKPGKAPKLLIYWASTRESGVPSRFSGSGSGTDFTLTISSLQPEDFATYYCKQSYDLFTFGGGTKVEIKRTVAAPSVFIFPPSDEQLKSGTASVVCLLNNFYPREAKVQWKVDNALQSGNSQESVTEQDSKDSTYSLSSTLTLSKADYEKHKVYACEVTHQGLSSPVTKSFNRGEC
notes: Chains 1-2: B7-H4 arm; chains 3-4: CD3 arm; Full-length chains; IgG2 dA D265A EEE/RRR

EC50 [1]: 27 nM | EC50 [2]: 44.8 nM | Kd [5]: 62.4 nM | koff [5]: ~0.0339 s⁻¹ | kon [5]: 543000 M⁻¹ s⁻¹ | Kd [6]: 68.8 nM | koff [6]: ~0.0341 s⁻¹ | kon [6]: 496000 M⁻¹ s⁻¹
B2: B7-H4xCD3 bispecific antibody 1156 (bispecific antibody, IgG2)
heavy 1: EVQLVESGGGLVQPGGSLRLSCAVSGGSFSGYYWNWVRQAPGKGLEWIGEINHSGSATYNPSLKSRVTISVDTAKNSLYLQMNSLRAEDTAVYYCARGLYNWNVDHWGQGTLVTVSSASTKGPSVFPLAPCSRSTSESTAALGCLVKDYFPEPVTVSWNSGALTSGVHTFPAVLQSSGLYSLSSVVTVPSSNFGTQTYTCNVDHKPSNTKVDKTVERKCEVECPECPAPPVAGPSVFLFPPKPKDTLMISRTPEVTCVVVAVSHEDPEVQFNWYVDGVEVHNAKTKPREEQFNSTFRVVSVLTVVHQDWLNGKEYKCKVSNKGLPSSIEKTISKTKGQPREPQVYTLPPSREEMTKNQVSLTCEVKGFYPSDIAVEWESNGQPENNYKTTPPMLDSDGSFFLYSKLTVDKSRWQQGNVFSCSVMHEALHNHYTQKSLSLSPGK
light 1: DIQMTQSPSSLSASVGDRVTITCRASQGIRNDLGWYQQKPGKAPKRLIYAASSLQSGVPSRFSGSGSGTDFTLTISSLQPEDFATYYCLQHNAYPRTFGGGTKVEIKRTVAAPSVFIFPPSDEQLKSGTASVVCLLNNFYPREAKVQWKVDNALQSGNSQESVTEQDSKDSTYSLSSTLTLSKADYEKHKVYACEVTHQGLSSPVTKSFNRGEC
heavy 2: EVQLVESGGGLVQPGGSLRLSCAASGFTFSDYYMTWVRQAPGKGLEWVAFIRNQARGYTSDHNPSVKGRFTISRDNAKNSLYLQMNSLRAEDTAVYYCARDRPSYYVLDYWGQGTTVTVSSASTKGPSVFPLAPCSRSTSESTAALGCLVKDYFPEPVTVSWNSGALTSGVHTFPAVLQSSGLYSLSSVVTVPSSNFGTQTYTCNVDHKPSNTKVDKTVERKCRVRCPRCPAPPVAGPSVFLFPPKPKDTLMISRTPEVTCVVVAVSHEDPEVQFNWYVDGVEVHNAKTKPREEQFNSTFRVVSVLTVVHQDWLNGKEYKCKVSNKGLPSSIEKTISKTKGQPREPQVYTLPPSREEMTKNQVSLTCLVKGFYPSDIAVEWESNGQPENNYKTTPPMLDSDGSFFLYSRLTVDKSRWQQGNVFSCSVMHEALHNHYTQKSLSLSPGK
light 2: DIQMTQSPSSLSASVGDRVTITCTSSQSLFNVRSQKNYLAWYQQKPGKAPKLLIYWASTRESGVPSRFSGSGSGTDFTLTISSLQPEDFATYYCKQSYDLFTFGGGTKVEIKRTVAAPSVFIFPPSDEQLKSGTASVVCLLNNFYPREAKVQWKVDNALQSGNSQESVTEQDSKDSTYSLSSTLTLSKADYEKHKVYACEVTHQGLSSPVTKSFNRGEC
notes: as for B1

Kd [10]: 22.3 nM | koff [10]: 0.00588 s⁻¹ | kon [10]: 264000 M⁻¹ s⁻¹ | Kd [11]: 40 nM | koff [11]: 0.026 s⁻¹ | kon [11]: 653000 M⁻¹ s⁻¹
B3: B7-H4xCD3 bispecific antibody 0089 (bispecific antibody, IgG1)
heavy 1: QVQLQQWGAGLLKPSETLSLTCAVYGGSFSGYYWNWIRQPPGKGLEWIGEINHSGSTKYNPSLKSRVTISGDTSKNQFSLKLNSVTAADTAVYYCVRGLYNWNVDSWGQGTLVTVSSASTKGPSVFPLAPSSKSTSGGTAALGCLVKDYFPEPVTVSWNSGALTSGVHTFPAVLQSSGLYSLSSVVTVPSSSLGTQTYICNVNHKPSNTKVDKKVEPKSCEKTHTCPECPAPEAAGAPSVFLFPPKPKDTLMISRTPEVTCVVVDVSHEDPEVKFNWYVDGVEVHNAKTKPREEQYNSTYRVVSVLTVLHQDWLNGKEYKCKVSNKALPAPIEKTISKAKGQPREPQVYTLPPSREEMTKNQVSLTCEVKGFYPSDIAVEWESNGQPENNYKTTPPVLDSDGSFFLYSKLTVDKSRWQQGNVFSCSVMHEALHNHYTQKSLSLSPG
light 1: DIQMTQSPSSLSASVGDRVTITCRASQGIRNDLGWYQQKPGKAPKRLIYVASSLQSGVPSRFSGSGSGTEFTLTISSLQPEDFATYYCLQHNSYPYTFGQGTKLEIKRTVAAPSVFIFPPSDEQLKSGTASVVCLLNNFYPREAKVQWKVDNALQSGNSQESVTEQDSKDSTYSLSSTLTLSKADYEKHKVYACEVTHQGLSSPVTKSFNRGEC
heavy 2: EVQLVESGGGLVQPGGSLRLSCAASGFTFSDYYMTWVRQAPGKGLEWVAFIRNQARGYTSDHNPSVKGRFTISRDNAKNSLYLQMNSLRAEDTAVYYCARDRPSYYVLDYWGQGTTVTVSSASTKGPSVFPLAPSSKSTSGGTAALGCLVKDYFPEPVTVSWNSGALTSGVHTFPAVLQSSGLYSLSSVVTVPSSSLGTQTYICNVNHKPSNTKVDKKVEPKSCRKTHTCPRCPAPEAAGAPSVFLFPPKPKDTLMISRTPEVTCVVVDVSHEDPEVKFNWYVDGVEVHNAKTKPREEQYNSTYRVVSVLTVLHQDWLNGKEYKCKVSNKALPAPIEKTISKAKGQPREPQVYTLPPSREEMTKNQVSLTCLVKGFYPSDIAVEWESNGQPENNYKTTPPVLDSDGSFFLYSRLTVDKSRWQQGNVFSCSVMHEALHNHYTQKSLSLSPG
light 2: DIQMTQSPSSLSASVGDRVTITCTSSQSLFNVRSQKNYLAWYQQKPGKAPKLLIYWASTRESGVPSRFSGSGSGTDFTLTISSLQPEDFATYYCKQSYDLFTFGGGTKVEIKRTVAAPSVFIFPPSDEQLKSGTASVVCLLNNFYPREAKVQWKVDNALQSGNSQESVTEQDSKDSTYSLSSTLTLSKADYEKHKVYACEVTHQGLSSPVTKSFNRGEC
notes: Chains 1-2: B7-H4 arm; chains 3-4: CD3 arm; IgG1 EEE/RRR scaffold
T cell mediated tumor cell killing EC50, HCC1954-Luc [9]: 75 nM | T cell mediated tumor cell killing, MDA-MB-468 [9]: 45
